# Laboratory results taken from patent US20220259306A1.
# Target: hFc-tagged NKG2A/CD94 protein (NKG2A/CD94-hFc), immunogen A (human) (UniProt P26715)
# Assay: ELISA on NKG2A/CD94-hFc protein (immunogen A), OD 450 nm
# Chain of hFc-tagged NKG2A/CD94 protein (NKG2A/CD94-hFc), immunogen A (human) (P26715 94-233 limits assumed, chain 1 of 2): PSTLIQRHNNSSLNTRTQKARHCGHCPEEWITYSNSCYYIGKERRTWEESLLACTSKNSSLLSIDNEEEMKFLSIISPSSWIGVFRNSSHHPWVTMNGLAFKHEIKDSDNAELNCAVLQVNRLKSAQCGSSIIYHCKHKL
# Chain of hFc-tagged NKG2A/CD94 protein (NKG2A/CD94-hFc), immunogen A (human) (chain, as listed by the source limits assumed, chain 2 of 2): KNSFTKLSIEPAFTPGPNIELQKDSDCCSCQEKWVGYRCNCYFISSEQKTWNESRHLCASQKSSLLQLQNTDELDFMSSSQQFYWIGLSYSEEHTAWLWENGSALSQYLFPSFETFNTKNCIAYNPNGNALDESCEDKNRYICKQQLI
row,EC50 (read off the curve),Substance
1,0.06 nM,control antibody-1
2,0.1 nM,control antibody-2
